# Results published in patent publication WO2012175740A1.
# Where two headings read alike, the source gives them in different places.
# Assays:
# [1] = biological target: cyno IgE c(epsilon)2-c(epsilon)3-c(epsilon)4 Fc fragment with C-terminal (His)10 tag (cynomolgus monkey); assay: Alphascreen, competition with HuFc(epsilon)RI(alpha)Fc for cyno IgE Fc
# [2] = biological target: cyno IgE c(epsilon)2-c(epsilon)3-c(epsilon)4 Fc fragment with C-terminal (His)10 tag (cynomolgus monkey); assay: as above; remark: listed apart in the source
# cyno IgE c(epsilon)2-c(epsilon)3-c(epsilon)4 Fc fragment with C-terminal (His)10 tag (cynomolgus monkey), sequence (chain, as listed by the source): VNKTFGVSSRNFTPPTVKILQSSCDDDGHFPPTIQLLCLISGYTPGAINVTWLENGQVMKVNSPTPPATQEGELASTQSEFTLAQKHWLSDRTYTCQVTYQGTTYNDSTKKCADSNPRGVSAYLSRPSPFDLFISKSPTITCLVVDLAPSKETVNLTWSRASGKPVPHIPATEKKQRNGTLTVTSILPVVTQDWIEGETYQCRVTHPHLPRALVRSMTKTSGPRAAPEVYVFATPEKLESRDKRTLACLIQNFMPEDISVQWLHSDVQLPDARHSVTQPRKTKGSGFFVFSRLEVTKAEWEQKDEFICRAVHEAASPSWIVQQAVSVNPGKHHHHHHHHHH
substance,measurement,setting,value
Fab obtained by papain digestion of commercially obtained omalizumab,% inhibition at 250 nM,[1],97.7%
same,IC50,[1],1.3 nM
same,% inhibition at 250 nM,[2],99.3%
same,IC50,[2],1.39 nM
